In patent publication US20150004162A1 (I2 PHARMACEUTICALS, published 2015):
Substitutions are numbered along the chain they refer to. One block for each binder: values may come before it.

Columns and labels:
DR4 on Ramos cells = biological target: T1, DR4 on Ramos cells (human, UniProt O00220 24-468); assay: cell-based or functional assay
T1 sequence (looked up): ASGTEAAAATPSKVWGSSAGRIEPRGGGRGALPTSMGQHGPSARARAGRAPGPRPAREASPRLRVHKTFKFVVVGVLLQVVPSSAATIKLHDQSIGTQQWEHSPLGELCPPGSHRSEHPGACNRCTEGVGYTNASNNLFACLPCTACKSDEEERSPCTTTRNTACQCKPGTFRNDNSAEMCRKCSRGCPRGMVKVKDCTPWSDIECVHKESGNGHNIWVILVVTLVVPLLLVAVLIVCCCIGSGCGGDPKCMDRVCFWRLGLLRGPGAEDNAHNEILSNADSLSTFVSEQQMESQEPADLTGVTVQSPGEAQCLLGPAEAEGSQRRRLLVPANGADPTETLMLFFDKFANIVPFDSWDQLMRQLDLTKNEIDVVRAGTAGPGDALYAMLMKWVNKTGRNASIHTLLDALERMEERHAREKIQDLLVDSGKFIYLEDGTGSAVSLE

DcR2 = biological target: T2, DcR2 (human, UniProt Q9UBN6 56-189, limits assumed); assay: ELISA, bivalent SBP on TRAIL receptor family proteins [C]
T2 construct: Recombinant protein coated on wells; also called decoy receptor DcR2
T2 sequence: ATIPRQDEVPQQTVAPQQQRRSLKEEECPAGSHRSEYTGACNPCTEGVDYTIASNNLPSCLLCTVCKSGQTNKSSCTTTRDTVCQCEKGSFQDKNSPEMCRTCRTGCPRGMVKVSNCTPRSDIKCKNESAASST
From the text: (§1) The bivalent SBP were detected using an anti-human Fc antibody conjugated to HRP.

DcR1 = biological target: T3, DcR1 (human, UniProt O14798 24-159, limits assumed); assay: as above
T3 construct: Recombinant protein coated on wells; also called decoy receptor DcR1
T3 sequence: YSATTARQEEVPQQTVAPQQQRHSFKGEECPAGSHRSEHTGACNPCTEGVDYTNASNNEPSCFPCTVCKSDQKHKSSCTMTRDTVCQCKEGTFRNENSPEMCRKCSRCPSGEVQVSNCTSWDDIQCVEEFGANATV
From the text: as §1

human DR5 [1] = biological target: T4, human DR5 (human, UniProt O14763 52-183, limits assumed); assay: ELISA, half-log dilutions on wells coated with 1 microgram/ml human DR5, anti-human Fc HRP
T4 construct: also called sDR5 (Peprotech); death receptor 5
T4 sequence (O14763 other isoform, or with tags, fused parts or gaps limits assumed): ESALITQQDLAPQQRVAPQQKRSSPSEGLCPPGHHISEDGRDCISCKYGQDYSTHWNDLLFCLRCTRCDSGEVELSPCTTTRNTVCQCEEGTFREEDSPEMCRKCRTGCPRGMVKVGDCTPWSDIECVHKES
From the text: as §1

human DR5 [2] = biological target: T4, human DR5; assay: antigen ELISA, half-log dilutions on coated human DR5, anti-human Fc-HRP
From the text: as §1

human DR4 [3] = biological target: T5, human DR4 (human, UniProt O00220 24-239, limits assumed); assay: ELISA, half-log dilutions on wells coated with 1 microgram/ml human DR4, anti-human Fc HRP
T5 construct: Recombinant DR4 coated on ELISA wells; also called death receptor 4; TRAIL-R1
T5 sequence: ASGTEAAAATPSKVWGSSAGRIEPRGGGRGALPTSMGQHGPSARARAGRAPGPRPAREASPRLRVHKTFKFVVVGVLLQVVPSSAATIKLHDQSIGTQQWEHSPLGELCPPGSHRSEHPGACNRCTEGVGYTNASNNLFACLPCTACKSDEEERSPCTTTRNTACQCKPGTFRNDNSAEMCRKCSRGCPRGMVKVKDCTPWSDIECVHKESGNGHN
From the text: as §1

Rhesus (NHP-2) DR5-Fc = biological target: T6, Rhesus (NHP-2) DR5-Fc (Rhesus); assay: ELISA, wells coated with 1 microgram/ml antigen, half-log dilutions, detection with anti-VpreB-HRP; inset table has no row label, the text calls the values half-maximal binding concentrations; unit from the axis Log[Agent] (nM) [panel D]
T6 construct: also called Rhesus DR5-Fc
From the text: (§2) Streptavidin-HRP or a monoclonal anti-VpreB-HRP conjugated antibody was used for detection and the assay developed with a TMB solution.

mouse DR5-Fc = biological target: T7, mouse DR5-Fc (mouse, UniProt Q9QZM4 53-177, limits assumed); assay: ELISA, 100 ng/well mouse DR5-Fc, 10 nM bivalent SBP, detection HRP-aVpreB
T7 construct: also called mouse death receptor; not shown: Fc part
T7 sequence (looked up): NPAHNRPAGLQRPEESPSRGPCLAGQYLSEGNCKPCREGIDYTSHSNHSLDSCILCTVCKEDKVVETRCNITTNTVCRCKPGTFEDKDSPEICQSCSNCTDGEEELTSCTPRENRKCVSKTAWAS

human DR4 [4] = biological target: T5, human DR4; assay: antigen ELISA, half-log dilutions on coated human DR4, anti-human Fc-HRP
From the text: as §1

[5] = biological target: T8, Cynomolgus (NHP-1) DR4-Fc (Cynomolgus); assay: ELISA, wells coated with 1 microgram/ml antigen, half-log dilutions of SgG, detection with anti-VpreB-HRP; unit taken from the axis Lg(nM) [panel A]
T8 construct: also called Cynomolgus DR4-Fc
From the text: as §2

Rhesus (NHP-2) DR4-Fc = biological target: T9, Rhesus (NHP-2) DR4-Fc (Rhesus, UniProt F6TP00 24-239); assay: ELISA, wells coated with 1 microgram/ml antigen, half-log dilutions, detection with anti-VpreB-HRP; inset table has no row label, the text calls the values half-maximal binding concentrations; unit from the axis Log[Agent] (nM) [panel C]
T9 construct: also called Rhesus DR4-Fc
T9 sequence: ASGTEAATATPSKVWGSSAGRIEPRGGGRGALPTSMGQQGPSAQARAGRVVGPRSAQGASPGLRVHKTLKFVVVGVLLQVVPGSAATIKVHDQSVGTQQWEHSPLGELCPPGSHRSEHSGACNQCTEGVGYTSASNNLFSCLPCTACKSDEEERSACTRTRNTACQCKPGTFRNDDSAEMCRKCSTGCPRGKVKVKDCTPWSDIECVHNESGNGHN
From the text: as §2

[6] = biological target: T10, Cynomolgus (NHP-1) DR5-Fc (Cynomolgus); assay: ELISA, wells coated with 1 microgram/ml antigen, half-log dilutions of SgG, detection with anti-VpreB-HRP; unit taken from the axis Lg(nM) [panel B]
T10 construct: also called Cynomolgus DR5-Fc
From the text: as §2

- EC50 (nM), inhibition of Ramos cell proliferation (WST-1), SgG cross-linked with anti-human-Fc antibody or Protein G (DR4 on Ramos cells): 0.498 nM
- binding result (DcR2): no binding (tested: 1000 nM)
- binding result (DcR1): no binding (tested: 1000 nM)
- EC50 (human DR5 [1]): 0.0502 nM
- EC50 (human DR5 [2]): 0.05 nM
- EC50 (human DR4 [3]): 0.0298 nM
- EC50 (Rhesus (NHP-2) DR5-Fc): 0.627 nM
- binding result (mouse DR5-Fc): no binding (tested: 10 nM)
- EC50 (human DR4 [4]): ~0.03 nM
B1: 3631-G09 bivalent SBP (other)
VH: EVQLVESGGGLVKPGGSLRLSCAASGFTFSTYGMHWVRQAPGKGLEWVAGINYSGNNKYYADSVKGRFTISRDNAKNSLYLQMNSLRAEDTAVYYCARDHSTWLSRHLDYWGQGTLVTVSS
surrogate light: QPVLHQPPAMSSALGTTIRLTCTLRNDHDIGVYSVYWYQQRPGHPPRFLLRYFSQSDKSQGPQVPPRFSGSKDVARNRGYLSISELQPEDEAMYYCAMGARSSVTHVFGSGTQLTVLSQPKATPSVTLFPPSSEELQANKATLVCLMNDFYPGILTVTWKADGTPITQGVEMTTPSKQSNNKYAASSYLSLTPEQWRSRRSYSCQVMHEGSTVEKTVAPAECS
notes: IgG1-like surroglobulin: full length heavy chain paired with surrogate light chain fusion 1, made in HEK293, Protein A purified; also called SL231; SL-231; copies: 2 + 2

- EC50 (Rhesus (NHP-2) DR5-Fc): 0.294 nM
- EC50 [5]: 6.36 nM
- EC50 (Rhesus (NHP-2) DR4-Fc): 146 nM
- EC50 [6]: 0.273 nM
B2: 3706-A02 (SL466) (other)
VH: B1 VH with H100S, W103T, L104R, S105T, H107A
light: B1 surrogate light
notes: Bivalent SBP (SgG); also called SgG
